Series [1] relates to oligopeptide Ac-Ile-Tyr-Gly-Glu-Phe-NH2 "M-2165" (Messrs. Bachem, MW 668.8).
Series [2] deals with T1, Raytide EL (protein-tyrosine-kinase substrate, MW 2476 Dalton, Messrs. Calbiochem).
T1 sequence: KKKGPWLEEEEEAYGWLDF

For the substance “p60c-src-kinase isolated from human cells (Messrs. Calbiochem)”, in series [1], the “phosphorylation of the substrate, detected by RIfS (AMD sensor) through the fall of free anti-phosphotyrosine antibody” value is “The phosphorylation is very clearly detectable” and the “phosphorylation of the substrate, detected by RIfS (diamino-PEG 2000 sensor) through the fall of free anti-phosphotyrosine antibody” value is reported as “The phosphorylation is very clearly detectable”. As to “Epidermal Growth Factor Receptor Kinase (EGF-RK) isolated from human A 431 carcinoma cells (Messrs. Sigma)”, the “phosphorylation of the substrate, detected by RIfS through the fall of free anti-phosphotyrosine antibody” value in series [2] was “The phosphorylation with the alternative substrate (SEQ ID NO.:3) Raytide™ EL is clearly detectable”.

For the origin of these results see patent US20050026219.
